One molecule from patent EP4806514A2 (Lepu Biopharma Co., Ltd., dated 2025) can be followed below.

The assay has as its target T1, rat CDH17-his (Sino bio, Cat. No. 80283-R08H) (rat, UniProt P55281 22-786).
T1 construct: Bought; also called rat CDH17 protein
T1 sequence (looked up): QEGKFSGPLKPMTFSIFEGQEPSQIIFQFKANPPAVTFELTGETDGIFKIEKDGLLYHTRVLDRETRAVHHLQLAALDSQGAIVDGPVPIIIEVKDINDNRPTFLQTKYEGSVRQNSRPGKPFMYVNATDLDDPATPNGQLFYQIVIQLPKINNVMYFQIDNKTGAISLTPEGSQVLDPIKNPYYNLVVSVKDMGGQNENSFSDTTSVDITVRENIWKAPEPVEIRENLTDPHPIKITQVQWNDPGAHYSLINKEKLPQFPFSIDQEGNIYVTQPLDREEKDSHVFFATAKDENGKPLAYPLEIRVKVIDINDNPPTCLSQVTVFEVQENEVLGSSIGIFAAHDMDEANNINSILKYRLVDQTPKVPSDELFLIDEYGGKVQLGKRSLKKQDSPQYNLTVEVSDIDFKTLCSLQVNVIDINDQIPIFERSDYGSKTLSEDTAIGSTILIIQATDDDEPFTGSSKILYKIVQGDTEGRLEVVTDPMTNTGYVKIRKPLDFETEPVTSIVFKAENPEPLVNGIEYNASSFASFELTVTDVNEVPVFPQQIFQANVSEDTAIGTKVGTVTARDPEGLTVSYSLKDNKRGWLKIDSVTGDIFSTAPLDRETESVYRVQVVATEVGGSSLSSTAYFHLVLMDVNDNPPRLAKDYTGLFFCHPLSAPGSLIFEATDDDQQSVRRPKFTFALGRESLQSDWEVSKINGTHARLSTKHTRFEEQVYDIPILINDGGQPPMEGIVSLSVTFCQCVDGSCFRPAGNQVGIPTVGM
In words: ELISA, antigen coated at 1 ug/mL.

B1: 29H8D3-z12 (antibody, V domains shown)
VH: QVQLVQSGAEVKKPGASVKVSCKASGYTFTDHTIHWMRQRPGQGLEWIGYIYPRDGYTKYNEKFKDRATLTADTSTSTAYMELRSLRSDDTAVYYCARFYYGYWYFDVWGQGTTVTVSS
VL: DIVMTQSPLSLPVTPGEPASISCRSSKSLLRSNGNTYLYWFLQKPGQSPQVLIYRMSNLASGVPDRFSGSGSGTDFTLKISRVEAEDVGVYYCMQHLEYPFTFGQGTKLEIK
notes: Humanized, human IgG1 constant region; also called 29H8D3-z12 mAb
As for B1, the binding result is “no binding (tested: titrated from 50 nM)”.
